Source: publication PMC10505172, “Discovery and pharmacophoric characterization of chemokine network inhibitors using phage-display, saturation mutagenesis and computational modelling” (Nature Communications, 2023)
Ends that are not written are not given here.

How the values were obtained:
CXCL6 = CXCL6 (human, UniProt P80162 38-114); assay: cell-based or functional assay
CCL8 = target: T1, CCL8 (human, UniProt P80075 24-99); assay: cell-based or functional assay
T1 sequence (looked up): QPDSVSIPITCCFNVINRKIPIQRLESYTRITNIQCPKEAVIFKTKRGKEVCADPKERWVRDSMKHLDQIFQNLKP

EEDDYTAYAPLTCYFT-NH2 [HD2 synthetic peptide]
IC50 (median of biological replicates) of inhibition of CXCL6-induced cell migration, chemokine at EC80 (CXCL6): 1.4e-05 molar | IC50 (median of biological replicates) of inhibition of CCL8-induced cell migration, chemokine at EC80 (CCL8): 1.9e-08 molar
